IntAct's records for PubMed 31552791

B1: Ras-related protein Rab-38 (Homo sapiens), P57729 (parent)
chain: MQAPHKEHLYKLLVIGDLGVGKTSIIKRYVHQNFSSHYRATIGVDFALKVLHWDPETVVRLQLWDIAGQERFGNMTRVYYREAMGAFIVFDVTRPATFEAVAKWKNDLDSKLSLPNGKPVSVVLLANKCDQGKDVLMNNGLKMDQFCKEHGFVGWFETSAKENINIDEASRCLVKHILANECDLMESIEPDVVKPHLTSTKVASCSGCAKS

Variants of: B1
Details: with lrrk2_human LRRK2, Q5S007
lrrk2_human LRRK2, Q5S007, sequence (Q5S007 whole entry): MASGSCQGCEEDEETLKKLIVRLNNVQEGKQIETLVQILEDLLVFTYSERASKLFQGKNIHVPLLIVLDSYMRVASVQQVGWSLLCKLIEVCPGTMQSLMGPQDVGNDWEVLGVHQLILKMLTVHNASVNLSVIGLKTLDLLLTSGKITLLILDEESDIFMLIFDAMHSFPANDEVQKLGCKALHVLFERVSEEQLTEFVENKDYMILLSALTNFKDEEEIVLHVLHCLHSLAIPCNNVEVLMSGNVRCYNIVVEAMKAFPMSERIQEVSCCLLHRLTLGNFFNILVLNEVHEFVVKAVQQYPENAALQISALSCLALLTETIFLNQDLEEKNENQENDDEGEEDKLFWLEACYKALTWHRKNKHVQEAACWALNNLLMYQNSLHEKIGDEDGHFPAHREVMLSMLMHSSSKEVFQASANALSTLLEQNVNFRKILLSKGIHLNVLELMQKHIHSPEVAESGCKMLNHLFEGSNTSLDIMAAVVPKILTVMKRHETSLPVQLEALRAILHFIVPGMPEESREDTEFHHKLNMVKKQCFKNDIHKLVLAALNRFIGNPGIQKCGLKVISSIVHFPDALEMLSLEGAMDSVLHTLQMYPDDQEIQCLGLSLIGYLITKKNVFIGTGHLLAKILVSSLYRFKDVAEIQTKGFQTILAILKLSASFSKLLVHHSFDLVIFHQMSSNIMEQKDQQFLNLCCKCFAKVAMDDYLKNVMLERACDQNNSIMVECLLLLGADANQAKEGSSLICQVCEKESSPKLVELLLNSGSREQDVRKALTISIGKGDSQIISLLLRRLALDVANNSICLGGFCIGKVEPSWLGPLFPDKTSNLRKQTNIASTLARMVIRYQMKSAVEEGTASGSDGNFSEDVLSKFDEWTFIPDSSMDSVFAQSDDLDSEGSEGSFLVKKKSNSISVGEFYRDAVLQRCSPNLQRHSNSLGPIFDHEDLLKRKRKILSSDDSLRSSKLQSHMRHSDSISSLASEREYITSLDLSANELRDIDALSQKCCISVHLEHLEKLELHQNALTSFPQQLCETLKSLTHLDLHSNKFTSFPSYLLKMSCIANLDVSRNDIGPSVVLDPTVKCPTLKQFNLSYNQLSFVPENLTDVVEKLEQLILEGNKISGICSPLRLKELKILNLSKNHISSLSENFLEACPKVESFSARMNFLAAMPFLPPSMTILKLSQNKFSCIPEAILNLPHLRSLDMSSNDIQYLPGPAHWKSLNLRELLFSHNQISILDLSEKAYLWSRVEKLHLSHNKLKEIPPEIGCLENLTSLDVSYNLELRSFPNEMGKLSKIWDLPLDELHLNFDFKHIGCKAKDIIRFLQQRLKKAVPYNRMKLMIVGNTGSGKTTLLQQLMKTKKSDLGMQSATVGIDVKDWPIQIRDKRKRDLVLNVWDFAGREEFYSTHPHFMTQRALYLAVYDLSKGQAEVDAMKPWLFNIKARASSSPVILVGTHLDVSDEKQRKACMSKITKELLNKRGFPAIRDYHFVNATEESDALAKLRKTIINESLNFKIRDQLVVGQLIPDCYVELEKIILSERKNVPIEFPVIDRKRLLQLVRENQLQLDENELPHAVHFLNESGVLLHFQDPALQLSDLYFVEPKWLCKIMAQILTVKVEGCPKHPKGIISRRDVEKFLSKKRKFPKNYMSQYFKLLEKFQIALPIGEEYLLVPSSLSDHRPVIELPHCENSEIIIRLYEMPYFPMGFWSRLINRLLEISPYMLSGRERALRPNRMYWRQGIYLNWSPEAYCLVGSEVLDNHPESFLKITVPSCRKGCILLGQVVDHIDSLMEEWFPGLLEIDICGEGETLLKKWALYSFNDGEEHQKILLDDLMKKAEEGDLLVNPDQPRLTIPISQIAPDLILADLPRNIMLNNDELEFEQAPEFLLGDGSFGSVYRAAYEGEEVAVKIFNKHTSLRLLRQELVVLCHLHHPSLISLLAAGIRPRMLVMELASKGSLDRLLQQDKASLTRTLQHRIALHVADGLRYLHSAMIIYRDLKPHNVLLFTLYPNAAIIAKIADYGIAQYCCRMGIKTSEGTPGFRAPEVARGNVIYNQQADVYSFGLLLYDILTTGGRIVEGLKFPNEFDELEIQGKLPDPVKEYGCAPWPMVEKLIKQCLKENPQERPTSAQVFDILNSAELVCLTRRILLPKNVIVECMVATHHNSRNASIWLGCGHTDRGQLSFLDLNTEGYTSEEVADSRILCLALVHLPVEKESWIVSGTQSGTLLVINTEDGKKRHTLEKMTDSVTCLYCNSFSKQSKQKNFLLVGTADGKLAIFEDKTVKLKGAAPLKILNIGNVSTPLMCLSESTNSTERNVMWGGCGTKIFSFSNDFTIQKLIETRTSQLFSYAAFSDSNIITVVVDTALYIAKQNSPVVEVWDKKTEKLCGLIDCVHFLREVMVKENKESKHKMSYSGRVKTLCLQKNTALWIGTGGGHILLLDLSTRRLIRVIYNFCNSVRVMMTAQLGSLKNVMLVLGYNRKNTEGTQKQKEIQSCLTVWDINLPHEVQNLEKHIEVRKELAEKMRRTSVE

Variant	effect of a mutation on the interaction
R77Q;R81Q	with no effect
I42E	with no effect
I42A	with no effect
R39Q	decreasing interaction strength
